Substrate in the series: O=C1CN[C@H](C(=O)O)C1
As to the kind of experiment: purified protein. As to conditions: NADH binds the HsBDH2:NADH complex; receives the pro-S hydrogen from NADH. The format is biochemical, Homo sapiens.

B1: 4-oxo-L-proline reductase (HsBDH2) (Homo sapiens) (protein)
chain: MGRLDGKVIILTAAAQGIGQAAALAFAREGAKVIATDINESKLQELEKYPGIQTRVLDVTKKKQIDQFANEVERLDVLFNVAGFVHHGTVLDCEEKDWDFSMNLNVRSMYLMIKAFLPKMLAQKSGNIINMSSVASSVKGVVNRCVYSTTKAAVIGLTKSVAADFIQQGIRCNCVCPGTVDTPSLQERIQARGNPEEARNDFLKRQKTGRFATAEEIAMLCVYLASDESAYVTGNPVIIDGGWSL
Usually Km stands for the concentration of substrate that gives half-maximal velocity. Consider B1, for which the Km was determined as 176 µM.

Values taken from PMC11840923, “Kinetic and Thermodynamic Characterization of Human 4-Oxo-L-proline Reductase Catalysis” (Biochemistry, 2025).
